# From patent US20260263563A1, “Method of Treatment of a Thoracolumbar Deformity in a Human Subject with Achondroplasia” (Ascendis Pharma Growth Disorders A/S, priority 2023, published 2026)
# Where two headings read alike, the source gives them in different places.
# How the values were obtained:
# [1] = tested on: prepubertal children with achondroplasia
# Protocol: The study enrolled a minimum of 60 male and female prepubertal children with ACH aged 2 to 10 years old. The clinical trial is listed on www.clinicaltrials.gov under the ClinicalTrials.gov Identifier: NCT04085523. The objectives of the study were as follow:
# This trial is a multicenter trial consisting of two treatment periods.
# Participants should rest for at least 5 minutes before vital sign measurement and vital signs should be taken prior to any blood draws. The following vital signs should be measured: • Heart Rate (measured in beats per minute) • Blood Pressure (seated BP will be taken measured in mm Hg) • Temperature [measured in degrees Celsius (° C.) or Fahrenheit (° F.)]
# All vital signs above must be measured at all visits. […] Orthostatic hypotension is defined as decrease in SBP of ≥20 mmHg (Stewart et al., Pediatrics, 141, 1-13, 2018). Accompanying tachycardia is defined as change of heart rate increment of ≥40 bpm and absolute orthostatic HR≥130 bpm (for ages 13 years and younger) (Singer et al., Journal of Pediatrics, 160, 222-226, 2012). Additionally, at Visit 1 and Visit 7 (in the Open-Label Extension Period), all vital signs must be monitored at 1 hour and 2 hours post injection of the study drug.
# [2] = tested on: prepubertal children with achondroplasia; remark: listed apart in the source
# Protocol: SF-10™ Health Survey for Children is a 10-item parent-completed survey that covers a wide range of domains affecting a child's functional health and well-being (QualityMetric.com), with 5 items primarily related to physical health (PhS), and 5 items primarily related to psyhocosial health (PsS).
# The survey was conducted at the following time points; baseline and week 52.
# SF-10 assesses, inter alia, physical health (PhS). 5 items of the SF-10 were selected for the assessment of physical health parameters as follows: • Limited in things that take some energy • Limited in bending, lifting, stooping • Limited in kind of schoolwork/activities due to physical health • Subjects health in general • How much bodily pain or discomfort
# For each response provided by a subject, a value is assigned and used to calculate the overall physical summary score in accordance with established guidelines (See The SF-10 Health Survey for Children User's Guide by QualityMetric). For reference, in accordance with the User's Guide, the SF-10 scale scores were centered so that a score of 50 corresponds to an average score in a 2006 sample (a combination of general population and supplemental disability and chronic condition samples).
# [3] = tested on: Fgfr3^Y367C/+ mice
# Text: The Y367C mutation was introduced into exon 9 of the mouse Fgfr3 gene along with a NEO cassette flanked by LoxP recombination sites. Due to the CMV promoter, the expression of the Fgfr3 Fgfr3^Y367C/+ is ubiquitous. Off-spring consisted of both Fgfr3^Y367C/+ and Fgfr3+/+ wild-type (WT) littermates.
# Survival of pups was monitored daily during the 15 days of treatment and registered in treatment diaries.
# [4] = tested on: healthy adult male subjects
# [5] = 57 patients followed for up to 65 weeks
# [6] = more than 2,000 injections administered
substance,measurement,setting,value
Navepegritide [Compound (1)],Serious TEAE,[1]; 6 μg/kg/week (n = 10),1 (10.0)
same,Subject with Treatment-Emergent Adverse Events (TEAE),[1]; 6 μg/kg/week (n = 10),9 (90.0)
same,Subjects with at Least One Treatment-Related TEAE,[1]; 6 μg/kg/week (n = 10),3 (30.0)
same,TEAE Grade 1,[1]; 6 μg/kg/week (n = 10),9 (90.0)
same,TEAE Grade 2,[1]; 6 μg/kg/week (n = 10),3 (30.0)
same,Treatment-Related TEAE,[1]; 6 μg/kg/week (n = 10),3 (30.0)
same,Treatment-related: Abdominal pain upper,[1]; 6 μg/kg/week (n = 10),0
same,Treatment-related: Dizziness,[1]; 6 μg/kg/week (n = 10),0
same,Treatment-related: Injection site reaction,[1]; 6 μg/kg/week (n = 10),2 (20.0)
same,Treatment-related: Overdose,[1]; 6 μg/kg/week (n = 10),0
same,Treatment-related: Sleep terror,[1]; 6 μg/kg/week (n = 10),0
same,Treatment-related: Urticaria,[1]; 6 μg/kg/week (n = 10),1 (10.0)
same,Achondroplasia-Related TEAE,"[1]; 6 μg/kg/week (n = 10), placebo 9 (60.0)",3 (30.0)
same,Achondroplasia-Related TEAE,[1]; 20 μg/kg/week (n = 11),4 (36.4)
same,Serious TEAE,[1]; 20 μg/kg/week (n = 11),0
same,Subject with Treatment-Emergent Adverse Events (TEAE),[1]; 20 μg/kg/week (n = 11),11 (100.0)
same,Subjects with at Least One Treatment-Related TEAE,[1]; 20 μg/kg/week (n = 11),2 (18.2)
same,TEAE Grade 1,[1]; 20 μg/kg/week (n = 11),11 (100.0)
same,TEAE Grade 2,[1]; 20 μg/kg/week (n = 11),3 (27.3)
same,Treatment-Related TEAE,[1]; 20 μg/kg/week (n = 11),2 (18.2)
same,Treatment-related: Abdominal pain upper,[1]; 20 μg/kg/week (n = 11),1 (9.1)
same,Treatment-related: Dizziness,[1]; 20 μg/kg/week (n = 11),0
same,Treatment-related: Injection site reaction,[1]; 20 μg/kg/week (n = 11),1 (9.1)
same,Treatment-related: Overdose,[1]; 20 μg/kg/week (n = 11),0
same,Treatment-related: Sleep terror,[1]; 20 μg/kg/week (n = 11),0
same,Treatment-related: Urticaria,[1]; 20 μg/kg/week (n = 11),0
same,Achondroplasia-Related TEAE,[1]; 50 μg/kg/week (n = 10),5 (50.0)
same,Serious TEAE,[1]; 50 μg/kg/week (n = 10),1 (10.0)
same,Subject with Treatment-Emergent Adverse Events (TEAE),[1]; 50 μg/kg/week (n = 10),10 (100.0)
same,Subjects with at Least One Treatment-Related TEAE,[1]; 50 μg/kg/week (n = 10),3 (30.0)
same,TEAE Grade 1,[1]; 50 μg/kg/week (n = 10),10 (100.0)
same,TEAE Grade 2,[1]; 50 μg/kg/week (n = 10),3 (30.0)
same,Treatment-Related TEAE,[1]; 50 μg/kg/week (n = 10),3 (30.0)
same,Treatment-related: Abdominal pain upper,[1]; 50 μg/kg/week (n = 10),0
same,Treatment-related: Dizziness,[1]; 50 μg/kg/week (n = 10),0
same,Treatment-related: Injection site reaction,[1]; 50 μg/kg/week (n = 10),3 (30.0)
same,Treatment-related: Overdose,[1]; 50 μg/kg/week (n = 10),0
same,Treatment-related: Sleep terror,[1]; 50 μg/kg/week (n = 10),0
same,Treatment-related: Urticaria,[1]; 50 μg/kg/week (n = 10),0
same,Achondroplasia-Related TEAE,[1]; 100 μg/kg/week (n = 11),1 (9.1)
same,Serious TEAE,[1]; 100 μg/kg/week (n = 11),0
same,Subject with Treatment-Emergent Adverse Events (TEAE),[1]; 100 μg/kg/week (n = 11),10 (90.9)
same,Subjects with at Least One Treatment-Related TEAE,[1]; 100 μg/kg/week (n = 11),2 (18.2)
same,TEAE Grade 1,[1]; 100 μg/kg/week (n = 11),9 (81.8)
same,TEAE Grade 2,[1]; 100 μg/kg/week (n = 11),1 (9.1)
same,Treatment-Related TEAE,[1]; 100 μg/kg/week (n = 11),2 (18.2)
same,Treatment-related: Abdominal pain upper,[1]; 100 μg/kg/week (n = 11),0
same,Treatment-related: Dizziness,[1]; 100 μg/kg/week (n = 11),0
same,Treatment-related: Injection site reaction,[1]; 100 μg/kg/week (n = 11),2 (18.2)
same,Treatment-related: Overdose,[1]; 100 μg/kg/week (n = 11),0
same,Treatment-related: Sleep terror,[1]; 100 μg/kg/week (n = 11),0
same,Treatment-related: Urticaria,[1]; 100 μg/kg/week (n = 11),0
same,reporting of achondroplasia related treatment emergent adverse events,"[1]; 100 μg/kg/week dose group, 60% in the placebo group",9.1%
same,AEs on orthostatism,[1]; [5],no AEs reported on orthostatism
same,serious adverse events related to the trial drug,[1]; [5],no serious adverse events related to the trial drug
same,withdrawals or discontinuations from the trial,[1]; [5],no withdrawals or discontinuations
same,total AEs related to trial drug or procedures,"[1]; 57 patients, more than 1900 injections",13
same,severity of ISRs,[1]; all ISRs,mild
same,injection site reactions,[1]; among more than 1900 injections,8
same,number of injection site reactions (ISRs),[1]; [6],11
same,number of patients with ISRs,[1]; [6],8
same,tolerability of injections,[1]; weekly s.c. injections,well tolerated with a low frequency of injection site reactions
same,"SF-10 Physical Summary Score, Wk 52 (S.E)","[2]; 100 μg/kg (SC) weekly, week 52",40.70 (6.87)
same,"SF-10 Physical Summary Score, Change from Baseline","[2]; 100 μg/kg (SC) weekly, week 52, placebo −3.04 (3.82)",+5.91 (1.65)
same,SF-10 PsS score,"[2]; 100 μg/kg weekly, after 52 weeks of treatment",improvement trend
same,SF-10 PhS score compared with baseline,"[2]; 100 μg/kg weekly, week 52",marked increase
same,"SF-10 Physical Summary, treated versus placebo","[2]; 100 μg/kg/week for one year (n=19) vs placebo (n=15), p=0.002, ages 5 years and older",statistically significant improved outcome
same,"ACEM Emotional Well-being, treated versus placebo","[2]; 100 μg/kg/week for one year vs placebo, p=0.045",statistically significant improved outcome
same,"ACEM Daily Living Function, treated versus placebo","[2]; 100 μg/kg/week for one year vs placebo, p=0.047",statistically significant improved outcome
same,"tolerability, adverse clinical signs","[3]; Fgfr3^Y367C/+ pups, 15 days of treatment","well tolerated, and no adverse clinical signs were observed"
same,Number of mice surviving to day 15,"[3]; Fgfr3^Y367C/+ pups, 5.6 mg/kg/day s.c., 15 days from day 1 after birth, 14 mice included",12
same,Number of mice surviving to day 15,"[3]; Fgfr3^Y367C/+ pups, […] third day s.c., 13 mice included",11
same,survival of pups compared with untreated pups,"[3]; either dose level, P<0.05, Log-rank (Mantel-Cox) test, untreated = vehicle treated and historic survival combined",significantly improved survival
same,registered incidence of maternal infanticide,[3]; treated groups,marked reduction
same,"blood pressure, heart rate, or safety laboratory test results",[4]; all investigated doses,No clinically relevant dose-dependent trends were observed
same,mean apparent t1/2 of free CNP-38,"[4]; single s.c. dose up to 150 μg CNP/kg, dose-independent",120 h
same,immunogenic response,[4]; single s.c. doses,no evidence of immunogenic response
same,local tolerability findings,[4]; single s.c. doses,predominantly mild to moderate redness
same,most commonly reported (≥10% of subjects) treatment-emergent adverse events,[4]; single s.c. doses,"headache, contact dermatitis, postural dizziness, (orthostatic) tachycardia, dizziness, and orthostatic hypotension"
same,serious adverse effects or deaths,[4]; single s.c. doses,no serious adverse effects (AEs) or deaths reported
same,severity of most TEAEs,[4]; single s.c. doses,mild or moderate
same,tolerability,"[4]; single s.c. doses up to 150 μg CNP/kg, all investigated doses",generally well tolerated
